The text below walks through data of US8158579B2, “Fusion protein of an exendin to modified transferrin” (BioRexis Pharmaceutical Corporation, priority 2006, dated 2012).

The experiment has as its target T1, rat GLP-1 receptor (Rattus norvegicus, UniProt P32301).
T1 construct: expressed in transfected cells; host or cells: CHO (CHO-GLP-1R)
T1 sequence (P32301 22-463): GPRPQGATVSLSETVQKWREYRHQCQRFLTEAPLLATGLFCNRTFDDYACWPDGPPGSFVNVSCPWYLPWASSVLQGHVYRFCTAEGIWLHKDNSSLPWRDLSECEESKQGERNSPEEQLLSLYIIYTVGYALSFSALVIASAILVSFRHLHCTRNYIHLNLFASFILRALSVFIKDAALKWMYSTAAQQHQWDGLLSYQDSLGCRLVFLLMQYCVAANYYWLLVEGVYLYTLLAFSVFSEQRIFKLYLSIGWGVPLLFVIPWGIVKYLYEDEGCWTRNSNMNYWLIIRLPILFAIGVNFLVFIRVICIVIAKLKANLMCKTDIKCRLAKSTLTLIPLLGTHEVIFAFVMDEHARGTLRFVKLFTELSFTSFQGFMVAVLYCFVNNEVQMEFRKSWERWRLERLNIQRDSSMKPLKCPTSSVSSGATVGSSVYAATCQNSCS
In words: cAMP potency assay in CHO cells transfected with the rat GLP-1 receptor (CHO-GLP-1R). The settings on record: cAMP accumulation in CHO-GLP-1R cells. It is filed as cell-based. As for the experimental part:
96-well tissue culture plates were seeded with CHO-GLP-1R cells and cultured overnight. The following day, the cells were rinsed with Krebs-Ringer buffer (KRB) and incubated in KRB containing the phosphodiesterase inhibitor 3-isobutyl-1-methylxanthine (IBMX, 2 mM) to inhibit intracellular enzymes that process cAMP. Serial dilutions of test compounds and controls were prepared in KRB/IBMX and triplicate wells of cells were inoculated with samples and controls. After incubation, individual sample lysates were then assayed to measure the increase in intracellular cAMP levels using a competition-based fluorescent immunoassay (CatchPoint® cAMP Fluorescent Assay Kit, Molecular Devices Corp., Sunnyvale, Calif.).

B1: pREX0659: exendin-4(1-30) fragment fused via (PEAPTD)2 linker to mTf (SEQ ID NO: 17) (protein)
chain: HGEGTFTSDLSKQMEEEAVRLFIEWLKNGGPEAPTDPEAPTDVPDKTVRWCAVSEHEATKCQSFRDHMKSVIPSDGPSVACVKKASYLDCIRAIAANEADAVTLDAGLVYDAYLAPNNLKPVVAEFYGSKEDPQTFYYAVAVVKKDSGFQMNQLRGKKSCHTGLGRSAGWNIPIGLLYCDLPEPRKPLEKAVANFFSGSCAPCADGTDFPQLCQLCPGCGCSTLNQYFGYSGAFKCLKDGAGDVAFVKHSTIFENLANKADRDQYELLCLDNTRKPVDEYKDCHLAQVPSHTVVARSMGGKEDLIWELLNQAQEHFGKDKSKEFQLFSSPHGKDLLFKDSAHGFLKVPPRMDAKMYLGYEYVTAIRNLREGTCPEAPTDECKPVKWCALSHHERLKCDEWSVNSVGKIECVSAETTEDCIAKIMNGEADAMSLDGGFVYIAGKCGLVPVLAENYNKADNCEDTPEAGYFAVAVVKKSASDLTWDNLKGKKSCHTAVGRTAGWNIPMGLLYNKINHCRFDEFFSEGCAPGSKKDSSLCKLCMGSGLNLCEPNNKEGYYGYTGAFRCLVEKGDVAFVKHQTVPQNTGGKNPDPWAKNLNEKDYELLCLDGTRKPVEEYANCHLARAPNHAVVTRKDKEACVHKILRQQQHLFGSNVADCSGNFCLFRSETKDLLFRDDTVCLAKLHDRNTYEKYLGEEYVKAVGNLRKCSTSSLLEACTFRRP
B1 registered an EC50 of 0.85 nM. That is a sub-nanomolar value.

B2: pREX0658: exendin-4(1-31) fragment fused via (PEAPTD)2 linker to mTf (SEQ ID NO: 17) (protein)
chain: HGEGTFTSDLSKQMEEEAVRLFIEWLKNGGPPEAPTDPEAPTDVPDKTVRWCAVSEHEATKCQSFRDHMKSVIPSDGPSVACVKKASYLDCIRAIAANEADAVTLDAGLVYDAYLAPNNLKPVVAEFYGSKEDPQTFYYAVAVVKKDSGFQMNQLRGKKSCHTGLGRSAGWNIPIGLLYCDLPEPRKPLEKAVANFFSGSCAPCADGTDFPQLCQLCPGCGCSTLNQYFGYSGAFKCLKDGAGDVAFVKHSTIFENLANKADRDQYELLCLDNTRKPVDEYKDCHLAQVPSHTVVARSMGGKEDLIWELLNQAQEHFGKDKSKEFQLFSSPHGKDLLFKDSAHGFLKVPPRMDAKMYLGYEYVTAIRNLREGTCPEAPTDECKPVKWCALSHHERLKCDEWSVNSVGKIECVSAETTEDCIAKIMNGEADAMSLDGGFVYIAGKCGLVPVLAENYNKADNCEDTPEAGYFAVAVVKKSASDLTWDNLKGKKSCHTAVGRTAGWNIPMGLLYNKINHCRFDEFFSEGCAPGSKKDSSLCKLCMGSGLNLCEPNNKEGYYGYTGAFRCLVEKGDVAFVKHQTVPQNTGGKNPDPWAKNLNEKDYELLCLDGTRKPVEEYANCHLARAPNHAVVTRKDKEACVHKILRQQQHLFGSNVADCSGNFCLFRSETKDLLFRDDTVCLAKLHDRNTYEKYLGEEYVKAVGNLRKCSTSSLLEACTFRRP
The molecule B2 showed an EC50 of 0.33 nM. This EC50 lies about 2.6-fold lower than the previous one.
